Experimental data taken from patent publication US20050026157, “Use of chimeric nucleases to stimulate gene targeting” (published 2005).

How the values were obtained:
[1] = tested on: GFP-CN1 chimeric nuclease (synthetic); test: cell_activity; details: paired with GFP-CN2, 293 cells
[2] = tested on: CD8CN1 chimeric nuclease (synthetic); test: cell_activity; details: paired with CD8CN2; 5% without nucleases
[3] = tested on: CD8CN2 chimeric nuclease (synthetic); test: cell_activity; details: paired with CD8CN1; 5% without nucleases
[4] = target: ZIF-L3-Fn chimeric nuclease (Zif268 zinc fingers, 3 aa linker, FokI nuclease domain) (UniProt P08046); test: cell_activity; details: QQRZIF6 target, heterodimer with QQR-L0-Fn; no significant stimulation alone; FIG. 3A prints Zif site as GCGTGGTCG
[5] = tested on: HCGCZF2 chimeric nuclease (synthetic); test: cell_activity; details: with ZIF-L3-Fn on hybrid target; no significant stimulation alone
[6] = tested on: HBGZF4 chimeric nuclease (synthetic); test: cell_activity; details: with ZIF-L3-Fn on hybrid target; ~30 fold alone
[7] = tested on: QQR-L0-Fn chimeric nuclease (QQR zinc finger triplet, no linker, FokI nuclease domain) (synthetic); test: cell_activity
[8] = tested on: QQR-L18-Fn chimeric nuclease (QQR zinc finger triplet, 18 aa linker, FokI nuclease domain) (synthetic); test: cell_activity; details: homodimer, 293 cells
[9] = tested on: HBGZF1 chimeric nuclease (synthetic); test: cell_activity; details: with ZIF-L3-Fn on hybrid target; no significant stimulation alone
[10] = tested on: GFP-CN2 chimeric nuclease (synthetic); test: cell_activity; details: paired with GFP-CN1, 293 cells
[11] = target: T1, I-SceI (UniProt P03882 P03882:1-235); test: cell_activity; homing endonuclease, A658 target, 293 cells
T1 sequence: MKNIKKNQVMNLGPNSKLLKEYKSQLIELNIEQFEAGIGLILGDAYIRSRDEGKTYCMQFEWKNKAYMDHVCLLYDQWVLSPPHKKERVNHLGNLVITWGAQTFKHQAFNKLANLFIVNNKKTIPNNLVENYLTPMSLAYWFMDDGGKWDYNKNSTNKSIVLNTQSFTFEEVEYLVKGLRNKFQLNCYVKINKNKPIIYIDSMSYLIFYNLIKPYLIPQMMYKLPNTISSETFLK
From the text: FIG. 1A illustrates a GFP gene targeting system. The artificial gene target (A658) consisted of a GFP gene mutated by a 35 basepair insertion which includes a stop codon and a recognition site for the I-SceI endonuclease (Sce) (5′ […] 3′) at basepair 327 of the coding sequence. The GFP gene was driven by a hybrid cytomegalovirus enhancer/chicken β3-actin promoter (“CMV/CBA” or “CBA”). The GFP gene was part of bicistronic transcript in which an internal ribosomal entry site (“IRES”) allowed translation of the human CD8α gene (“CD8”). The bicistronic message contained a Woodchuck post-trancriptional regulatory element (“WPRE”) to increase messenger RNA levels (Zufferey et al., 1999, J Virol, 73:2886-92). Finally, the locus contained a gene with the phosphoglycerate kinase promoter (“PGK”) driving the neomycin phosphotransferase gene (NEO) to allow selection by the antibiotic G418. […] Gene targeting was measured by transfecting 293/A658 cells with RS2100 with or without a Sce expression plasmid along with a control plasmid (pON405) to determine the transfection efficiency. […] The cells were then incubated for 3 days and the percentage of GFP positive cells measured by flow cytometry using a FACScan (BD Biosciences, San Jose, Calif.). The gene targeting rate was determined by normalizing the measured percentage of GFP positive cells to the transfection efficiency.

ZIF-L3-Fn chimeric nuclease (Zif268 zinc fingers, 3 aa linker, FokI nuclease domain), sequence (P08046 whole entry, change not shown, the tested form may be a part): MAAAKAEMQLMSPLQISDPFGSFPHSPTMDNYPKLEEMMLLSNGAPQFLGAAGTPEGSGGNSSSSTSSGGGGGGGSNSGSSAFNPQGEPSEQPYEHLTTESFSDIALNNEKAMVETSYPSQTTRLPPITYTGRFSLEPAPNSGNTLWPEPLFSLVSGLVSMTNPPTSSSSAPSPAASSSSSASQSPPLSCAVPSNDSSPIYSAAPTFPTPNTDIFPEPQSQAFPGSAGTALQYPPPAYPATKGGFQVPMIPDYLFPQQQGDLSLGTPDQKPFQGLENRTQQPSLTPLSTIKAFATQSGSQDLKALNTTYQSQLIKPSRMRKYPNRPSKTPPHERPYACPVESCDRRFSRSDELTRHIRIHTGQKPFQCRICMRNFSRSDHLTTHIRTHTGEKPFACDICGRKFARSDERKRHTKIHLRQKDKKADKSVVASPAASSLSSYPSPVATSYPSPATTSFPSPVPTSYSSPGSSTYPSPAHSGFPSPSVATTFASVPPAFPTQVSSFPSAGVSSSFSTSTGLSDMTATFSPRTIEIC

GAAGATGGT (double strand) [GFP-CN1 half-site]
activity (fold stimulation of gene targeting) [1]: 1000

GTGGGCGCC (double strand) [CD8CN1 half-site]
activity (% CD8 negative cells) [2]: > 20

GTCGCAGCC (double strand) [CD8CN2 half-site]
activity (% CD8 negative cells) [3]: > 20

GCGTGGGCG (double strand) [Zif268 half-site]
activity (fold stimulation of gene targeting) [4]: > 5000

GGGGGAGCA (double strand) [HCGCZF2 half-site]
activity (fold stimulation of gene targeting) [5]: > 200

GGCAAGGTG (double strand) [HBGZF4 half-site]
activity (fold stimulation of gene targeting) [6]: 60

GGGGAAGAA (double strand) [QQR half-site in QQRZIF6]
activity (fold stimulation of gene targeting) ([7]; QQRZIF6 target, heterodimer with ZIF-L3-Fn, no significant stimulation alone): > 5000

GGGGAAGAA (double strand) [QQR8 target (inverted QQR sites, 8 bp spacer)]
activity (fold stimulation of gene targeting) [8]: 260

GAGGTTGCT (double strand) [HBGZF1 half-site]
activity (fold stimulation of gene targeting) [9]: > 4000

GACGACGGC (double strand) [GFP-CN2 half-site]
activity (fold stimulation of gene targeting) [10]: 1000

GGGGAAGAA (double strand) [QQR6 target (inverted QQR sites, 6 bp spacer)]
activity (fold stimulation of gene targeting) ([7]; homodimer, 293 cells, as efficient as I-SceI): > 2000 | activity (fold stimulation of gene targeting) [8]: 17

B1: I-SceI site in A658 (dsDNA)
DNA 1: TAGGGATAACAGGGTAAT
DNA 2: ATTACCCTGTTATCCCTA
activity [11]: > 2000 fold stimulation of gene targeting
